The values that follow come from patent US20170073415A1 (NUMAB, published 2017).

Usually Kd stands for the concentration at which binding is half-saturated.

Assay [1] addresses human CD3ε expressed on the cell surface of T cells (Jurkat clone E6-1; human CD8+ T cells) (human) (UniProt P07766). Description: cell-based or functional assay.
Assay [2] deals with T1, human CD3ε expressed on the cell surface of T cells (Jurkat clone E6-1; human CD8+ T cells) (human, UniProt P07766 23-207). Description: cell-based or functional assay.
For assay [3], the target named is T1, human CD3ε expressed on the cell …. Briefly: cell-based or functional assay. This is another data set of the same source.
For assay [4], the target named is human heterodimeric single-chain CD3εγ extracellular domain (human) (UniProt P07766). Description: SPR, human scCD3εγ ECD immobilised, scDb injected. A general note: Surface plasmon resonance follows binding to a sensor surface in real time, without labels.
Assay [5] concerns the target human CD3ε expressed on the cell surface of T cells (Jurkat clone E6-1; human CD8+ T cells) (human) (UniProt P07766). Briefly: cell-based or functional assay. This is another data set of the same source.

Consider “OKT3 (BioLegend, Cat. No. 317302) (antibody)”, for which, in assay [1], the Fold increase in CD69 expression [MFI normalized to neg. ctrl.], 1.25 µg/ml anti-CD3 IgG, Jurkat cells, 24 h was determined as 1.8 fold; the Fold increase in CD69 expression [MFI normalized to neg. ctrl.], 5 µg/ml anti-CD3 IgG, Jurkat cells, 24 h was 2.5 fold; the Fold increase in CD69 expression [MFI normalized to neg. ctrl.], 20 µg/ml anti-CD3 IgG, Jurkat cells, 24 h was determined as 3.1 fold.

As to “TR66 (Novus Biologicals, Cat. No. NBP1-97446) (antibody)”, in assay [1], the Fold increase in CD69 expression [MFI normalized to neg. ctrl.], 1.25 µg/ml anti-CD3 IgG, Jurkat cells, 24 h is 1.6 fold; the Fold increase in CD69 expression [MFI normalized to neg. ctrl.], 5 µg/ml anti-CD3 IgG, Jurkat cells, 24 h amounted to 2.2 fold; the Fold increase in CD69 expression [MFI normalized to neg. ctrl.], 20 µg/ml anti-CD3 IgG, Jurkat cells, 24 h was found to be 3 fold.

B1: bispecific anti-IL5R×CD3ε single-chain diabody containing Numab's humanized clone 6 anti-CD3 variable domain (Example 9) (bispecific antibody)
chain: DIQMTQSPSSLSASVGDRVTITCQASQNIYSNLAWYQQKPGKAPKLLIYRASTLASGVPSRFSGSGSGTDFTLTISSLQPEDFATYYCQSNYGINYYGAAFGQGTKLTVLGGGGGSEVQLVESGGGLVQPGGSLRLSCAASGFPLSSYAMIWVRQAPGKGLEWIGMILRAGNIYYASWVKGRFTISRDNSKNTVYLQMNSLRAEDTAVYYCARRHYNREGYPIGIGDLWGQGTLVTVSSGGGGSGGGGSGGGGSGGGGSDIQMTQSPSSLSASVGDRVTITCQSSESVYNNKRLSWYQQKPGKAPKLLIYTASSLASGVPSRFSGSGSGTDFTLTISSLQPEDFATYYCQGEFTCSNADCFTFGQGTKLTVLGGGGGSEVQLVESGGGLVQPGGSLRLSCAASGFSLSSYDMTWVRQAPGKGLEWIGIIYVSGSAYYASWAKGRFTISRDNSKNTVYLQMNSLRAEDTAVYYCARINYGLDLWGQGTLVTVSS
For the molecule B1, in assay [2], the “EC50 of specific lysis of CHO-IL5R target cells by CD8+ T cells at 64 hours” value amounted to 0.31 nM.

B2: clone-02 (monoclonal rabbit anti-CD3ε antibody) (antibody, V domains shown)
VH: QSLEESGGRLVTPGTPLTLTCTVSGFPLSAYAMIWVRQAPGKGLEWIGMIIRSGTVYYANWAKGRFTISKTSTTVDLKITSPTTEDTATYFCARRHYNADGYPIGIGDLWGPGTLVTVSS
VL: AQVLTQTPSSVSAVVGGTVTISCQSSESVYSNNRLSWFQQKPGQPPKLLIYSASTLASGVPSRFKGSGSGTQFTLTITDLECDDAATYFCQGEFSCSSVDCFSFGGGTEVVVKG
B2: in assay [3], the “Fold increase in CD69 expression [MFI normalized to neg. ctrl.], 1.25 µg/ml anti-CD3 IgG, Jurkat cells, 24 h” value amounted to 3.3 fold; the “Fold increase in CD69 expression [MFI normalized to neg. ctrl.], 5 µg/ml anti-CD3 IgG, Jurkat cells, 24 h” value came to 4.6 fold; the “Fold increase in CD69 expression [MFI normalized to neg. ctrl.], 20 µg/ml anti-CD3 IgG, Jurkat cells, 24 h” value was 7.4 fold.

B3: clone-06 (monoclonal rabbit anti-CD3ε antibody) (antibody, V domains shown)
VH: QSVEESGGRLVTPGTPLTLTCTVSGFPLSSYAMIWVRQAPGKGLEWIGMILRAGNIYYASWVKGRVTISKTSTTVDLKITSPTTEDTATYFCARRHYNREGYPIGIGDLWGPGTLVTVSS
VL: AQVLTQTPSSVSAAVGGTVTISCQSSESVYNNKRLSWFQQKPGQPPKQLIYTASSLASGVPSRFKGSGSGTQFTLTISDLECDDAATYYCQGEFTCSNADCFTFGGGTEVVVKG
For B3, in assay [3], the “Fold increase in CD69 expression [MFI normalized to neg. ctrl.], 1.25 µg/ml anti-CD3 IgG, Jurkat cells, 24 h” value turned out to be 2.7 fold; the “Fold increase in CD69 expression [MFI normalized to neg. ctrl.], 5 µg/ml anti-CD3 IgG, Jurkat cells, 24 h” value turned out to be 5.1 fold; the “Fold increase in CD69 expression [MFI normalized to neg. ctrl.], 20 µg/ml anti-CD3 IgG, Jurkat cells, 24 h” value was 5.3 fold.

B4: clone-04 (monoclonal rabbit anti-CD3ε antibody) (antibody, V domains shown)
VH: QSLEESGGRLVKPDETLTLTCTVSGFPLSSYAMGWFRQAPGKGLEWIGMILRSDNTYYASWAKGRFTISKTSTTVDLKITSPTTEDTATYFCARRHYNASGNPIAIGDLWGPGTLVTVSS
VL: AQVLTQTPSSVSAAVGGTVTINCQSSQSVYNNNRLSWFQQKPGQPPKLLIYTTSSLASGVPSRFKGSGSGTEFTLTISDLECADAATYYCQGEFSCSRADCFNFGGGTEVVVKG
In the case of B4, in assay [3], the “Fold increase in CD69 expression [MFI normalized to neg. ctrl.], 1.25 µg/ml anti-CD3 IgG, Jurkat cells, 24 h” value was 2.6 fold; the “Fold increase in CD69 expression [MFI normalized to neg. ctrl.], 5 µg/ml anti-CD3 IgG, Jurkat cells, 24 h” value is 3.5 fold; the “Fold increase in CD69 expression [MFI normalized to neg. ctrl.], 20 µg/ml anti-CD3 IgG, Jurkat cells, 24 h” value was 7.8 fold.

B5: clone-03 (monoclonal rabbit anti-CD3ε antibody) (antibody, V domains shown)
VH: QSLEESGGRLVTPGTPLTLTCTVSGFPLNRYAMLWVRQAPGKGLEWIGLITRADKKYYASWAKGRFTISKTSTTVDLEITGPTTEDTATYFCARRHYNTDGYPIAIGDLWGPGTLVTVSS
VL: AQVLTQTPSSVSAAVGGTVTISCQSNENIYSNNRLSWFQQKPGQPPNQLIYSASSLASGVPSRFKGSGSGTQFTLTISDLECDDAATYYCQGEFNCNSADCFTFGGGTEVVVKG
Take B5: in assay [3], the “Fold increase in CD69 expression [MFI normalized to neg. ctrl.], 1.25 µg/ml anti-CD3 IgG, Jurkat cells, 24 h” value was 2.6 fold; the “Fold increase in CD69 expression [MFI normalized to neg. ctrl.], 5 µg/ml anti-CD3 IgG, Jurkat cells, 24 h” value came to 4.6 fold; the “Fold increase in CD69 expression [MFI normalized to neg. ctrl.], 20 µg/ml anti-CD3 IgG, Jurkat cells, 24 h” value is 6.6 fold.

B6: Construct 1, bispecific anti-CD3×IL5R single-chain diabody comprising the humanized variable domain of clone-06 (bispecific antibody, part only; not given: anti-IL5R domains and linkers, part only)
chain, part: DIQMTQSPSSLSASVGDRVTITCQSSESVYNNKRLSWYQQKPGKAPKLLIYTASSLASGVPSRFSGSGSGTDFTLTISSLQPEDFATYYCQGEFTCSNADCFTFGQGTKLTVLGEVQLVESGGGLVQPGGSLRLSCAASGFPLSSYAMIWVRQAPGKGLEWIGMILRAGNIYYASWVKGRFTISRDNSKNTVYLQMNSLRAEDTAVYYCARRHYNREGYPIGIGDLWGQGTLVTVSS
As for B6, the Kd in assay [4] is 11.5 nM. Further, in assay [5], the Potency to lyse target cells [EC50] (CHO-IL5R cells, CD8+ T cells, 88 h) was 0.1 nM and the Potency to stimulate IL-2 secretion by T cells [EC50] came to 0.96 nM.

B7: clone-10 (monoclonal rabbit anti-CD3ε antibody) (antibody, V domains shown)
VH: QSLEESGGRLVTPGTPLTLTCTVSGFPLSSFAMLWVRQAPGKGLEWIGMIMRAHNMYYASWAKGRFTISKTSTTVDLEITSPTTEDTATYFCARRHYNTYGYPIAIGDLWGPGTLVTVSS
VL: AQVLTQTPSSVSAAVGGTATISCQSNENIYSNNRLSWFQQKAGQPPNQLIYSASSLASGVPSRFKGSGSGTQFTLTISDLECDDAATYYCQGEFSCSSADCFTFGGGTEVVVKG
Consider B7, for which, in assay [3], the “Fold increase in CD69 expression [MFI normalized to neg. ctrl.], 1.25 µg/ml anti-CD3 IgG, Jurkat cells, 24 h” value turned out to be 2.6 fold; the “Fold increase in CD69 expression [MFI normalized to neg. ctrl.], 5 µg/ml anti-CD3 IgG, Jurkat cells, 24 h” value worked out at 4.2 fold; the “Fold increase in CD69 expression [MFI normalized to neg. ctrl.], 20 µg/ml anti-CD3 IgG, Jurkat cells, 24 h” value was found to be 6.2 fold.
